From patent US10202584B2, “Red-shifted luciferase-luciferin pairs for enhanced bioluminescence” (The Regents of the University of California, priority 2016, dated 2019)

Test system: HEK 293T cells
Assay: Bioluminescence relative to FLuc with P2A bicistronic vectors in HEK 293T cells
Assay type: cell-based, Human
Details: 10,000 HEK 293T cells, 30 μM substrates, first 2 min integrated
Source text: FIG. 12 is a panel examining the impact of luciferase protein levels on bioluminescence intensities. (12a) Western blot analysis of HEK 293T cells expressing luciferases with C-terminal c-Myc tags. The relative proteins levels quantified from individual bands are shown in parentheses. These enzymes were expressed at different levels but the differences were within 3-fold. […] Under this condition, two luciferases in the same vectors are expected to be expressed near-stoichiometrically.

B1: NanoLuc: luciferase engineered from a 19 kDa domain of Oplophorus luciferase (SEQ ID NO: 1) (protein)
chain: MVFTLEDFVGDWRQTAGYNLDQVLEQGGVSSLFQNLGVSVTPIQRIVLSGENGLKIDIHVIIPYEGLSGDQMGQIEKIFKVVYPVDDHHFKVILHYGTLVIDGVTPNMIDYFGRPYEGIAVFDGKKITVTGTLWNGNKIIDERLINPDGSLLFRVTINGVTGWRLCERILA
modifications: Engineered mutant of Oplophorus gracilirostris polypeptide
  bioluminescence relative to FLuc, P2A bicistronic vectors: Large bioluminescence enhancements
